According to paper PMC7700585, “Mechanistic Insights into the Allosteric Regulation of the Clr4 Protein Lysine Methyltransferase by Autoinhibition and Automethylation” (International Journal of Molecular Sciences, 2020):

Assays:
Clr4 WT [1] = molecular target: T1, Clr4 WT (Schizosaccharomyces pombe, UniProt O60016); assay: AdoMet dependence of Clr4 WT activity (MALDI-TOF); format: biochemical; conditions: 30 °C, Hill model
T1 construct: The plasmid encoding for SUMO- and His-tagged full-length Clr4 WT and different mutant variants were transformed into E. coli; SUMO; His; made in house; host or cells: E. coli BL21-CodonPlus (DE3)
T1 sequence (O60016 whole entry): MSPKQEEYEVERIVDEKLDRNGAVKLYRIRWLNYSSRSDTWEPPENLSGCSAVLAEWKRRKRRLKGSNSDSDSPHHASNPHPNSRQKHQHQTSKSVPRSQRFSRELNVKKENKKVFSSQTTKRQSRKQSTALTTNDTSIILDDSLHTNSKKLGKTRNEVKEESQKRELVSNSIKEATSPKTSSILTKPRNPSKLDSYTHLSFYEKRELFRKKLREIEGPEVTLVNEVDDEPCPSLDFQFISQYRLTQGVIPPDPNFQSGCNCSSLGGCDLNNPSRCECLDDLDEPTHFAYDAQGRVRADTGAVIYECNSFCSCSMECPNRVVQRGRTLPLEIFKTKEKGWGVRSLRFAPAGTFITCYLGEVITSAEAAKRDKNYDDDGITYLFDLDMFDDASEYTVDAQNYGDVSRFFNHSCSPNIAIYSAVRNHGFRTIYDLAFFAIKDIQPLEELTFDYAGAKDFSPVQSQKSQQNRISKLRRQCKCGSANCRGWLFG
Experimental: (§1) To investigate the Clr4 AdoMet dependency and the role that could be played by ARL automethylation in sensing AdoMet concentrations, steady-state kinetics were conducted at variable AdoMet concentrations. […] Afterwards, the methylation products were detected by MALDI-TOF mass spectrometry (Supplementary Figure S5). The Clr4 reaction rates were derived from the analysis of relative peak intensities of the different methylated histone peptides (Figure 6A,B).
(§2) Figure 6 AdoMet dependence of the activity of Clr4 WT and the K455R/K472R mutant. Fractions of methylated products observed with increasing AdoMet concentrations (2–50 µM) for Clr4 WT (A) or the automethylation-deficient K455R/K472R mutant (B). Data were obtained from the analysis of corresponding relative peak intensities measured by MALDI-TOF mass spectrometry in two to four independent experiments (see Supplementary Figure S5).
The reactions were halted by the addition of 0.1% trifluoroacetic acid (TFA). […] After that, the dried spots on the anchor plate were analyzed using an Autoflex Speed MALDI-TOF mass spectrometer (Bruker-Daltonics, Billerica, MA, USA). […] The collected spectra were then analyzed with Flex analysis software (Bruker Daltonics). The relative methylation levels were determined by using the corresponding peak intensities of the substrate peptide in different methylation states.

Clr4 K455R/K472R = Clr4 K455R/K472R (Schizosaccharomyces pombe, UniProt O60016, K455R/K472R); assay: AdoMet dependence of Clr4 K455R/K472R activity (MALDI-TOF); format: biochemical
Clr4 K455R/K472R, sequence (O60016 whole entry K455R/K472R): as the sequence (O60016 whole entry) above, with K455R, K472R counted along it
Experimental: as §1, §2
(§3) The reactions were halted by the addition of 0.1% trifluoroacetic acid (TFA). All the samples were cleaned using C18 tips (Agilent Technologies, Santa Clara, CA, USA). The eluted samples were spotted on an anchor chip plate and allowed to dry completely. Later, 1 μL of HCCA matrix (0.7 mg/mL α-cyano-4 hydroxycinnamic acid dissolved in 85% acetonitrile, 0.1% TFA, 1 mM ammonium dihydrogen phosphate) was added to dried sample and allowed to dry again. After that, the dried spots on the anchor plate were analyzed using an Autoflex Speed MALDI-TOF mass spectrometer (Bruker-Daltonics, Billerica, MA, USA). The mass spectra were collected using the Flex control software (Bruker-Daltonics). For calibration, the peptide calibration standard (Bruker-Daltonics) with peptides ranging from 700 to 3200 Da was used. The collected spectra were then analyzed with Flex analysis software (Bruker Daltonics). The relative methylation levels were determined by using the corresponding peak intensities of the substrate peptide in different methylation states.

Clr4 WT [2] = molecular target: T1, Clr4 WT; assay: MALDI-TOF detection of Clr4 WT methylation of histone peptides; format: biochemical; conditions: 4.5 µM peptide, 1 mM unlabeled AdoMet
Experimental: as §3

Clr4 = assay: Radioactive in vitro automethylation of Clr4 WT and ARL variants (autoradiography); format: biochemical, Schizosaccharomyces pombe; conditions: for Automethylation level (relative value): relative to WT, mean ± S.D., two to four independent experiments, results with and without peptide combined, 0.45 µM Clr4, 2.4 µM H3K9me0 peptide, 0.76 µM [methyl-3H]-AdoMet, 50 mM Tris pH 8.8, 3 h, 30 °C; for change in automethylation, in words: compared to WT (triple mutant: compared to A454R); for decrease in automethylation compared to the WT enzyme (fold): autoradiography, normalized to WT
Description: (§4) After the methylation reactions, the samples were separated by gel electrophoresis and the transfer of the radioactively labeled methyl groups from the cofactor to the respective target lysine residues in Clr4 and in the H3K9 peptide was visualized by autoradiography, analyzed quantitatively and normalized to WT (Figure 2 and Supplementary Table S1).
(§5) Figure 2 Methyltransferase activity and automethylation of different engineered Clr4 variants compared to wild type (WT). […] The red asterisks indicate the Clr4 automethylation signal. […] The mean values are indicated by the bars and the individual data points as circles. […] The p-values of the differences in automethylation and methyltransferase activities between WT and mutants are listed in Supplementary Table S1.
(§6) The reactions were stopped by the addition of Tricine-SDS-PAGE loading buffer followed by heating to 95 °C for 5 min. […] The signals of the transferred radioactively labeled methyl groups were detected by autoradiography using a Hyperfilm^TM high-performance autoradiography film (Merck), which was placed on the dried gels at −80 °C in the dark. Films were developed with an Optimax Typ TR machine after different exposure times. For quantification, the signal intensities were measured with ImageJ (https://imagej.nih.gov/ij/) and analyzed with Microsoft Excel (Microsoft, Redmond, WA, USA).

[3] = system: unmodified H3K9 peptide (H3K9me0); assay: Radioactive in vitro methyltransferase activity of Clr4 variants on H3K9 peptide; format: biochemical; conditions: for change in methyltransferase activity on the H3K9 peptide, in words: compared to WT (triple mutant: compared to A454R), low AdoMet (0.76 µM); for Methyltransferase activity (relative value): relative to WT, mean ± S.D., two to four independent experiments, 0.45 µM Clr4, 2.4 µM H3K9me0 (1–19) peptide, 0.76 µM [methyl-3H]-AdoMet, 50 mM Tris pH 8.8, 3 h, 30 °C
Description: as §4, §5, §6

Clr4 A454R = molecular target: T2, Clr4 A454R (Schizosaccharomyces pombe, UniProt O60016, A454R); format: biochemical
T2 construct: The plasmid encoding for SUMO- and His-tagged full-length Clr4 WT and different mutant variants were transformed into E. coli; SUMO; His; made in house; host or cells: E. coli BL21-CodonPlus (DE3)
T2 sequence (O60016 whole entry A454R): as the sequence (O60016 whole entry) above, with A454R counted along it
Experimental: A reaction of WT enzyme incubated with 400 µM peptide was loaded on each gel as reference for the quantitative analysis.
The methylation reactions were performed using a peptide concentration range (25–400 µM) in methylation buffer (50 mM Tris pH 8.8, 10 mM MgCl2, 20 mM KCl, 1 mM DTT) supplemented with 0.76 µM radioactively labeled AdoMet (PerkinElmer) and 0.3 µM Clr4 WT or variants for 1 h at 30 °C.

[4] = system: C[S+](CC[C@H](N)C(=O)[O-])C[C@H]1O[C@@H](n2cnc3c(N)ncnc32)[C@H](O)[C@@H]1O; assay: AdoMet dependence of Clr4 K455R/K472R activity (MALDI-TOF); format: biochemical, Schizosaccharomyces pombe; conditions: other: Clr4 K455R/K472R 0.9 µM, H3K9me1 peptide 4.58 µM, AdoMet 0–50 µM, 50 mM Tris pH 8.8, 3 h, 30 °C, Michaelis–Menten model, mean ± SEM, two to four independent experiments
Experimental: as §1, §2, §3

[5] = molecular target: Clr4 wild type, SUMO- and His-tagged full-length (S. pombe, UniProt O60016 1-490); assay: cell-based or functional assay
[6] = molecular target: Clr4 A454R mutant, SUMO- and His-tagged full-length (S. pombe, UniProt O60016 1-490, A454R); assay: cell-based or functional assay

## C[S+](CC[C@H](N)C(=O)[O-])C[C@H]1O[C@@H](n2cnc3c(N)ncnc32)[C@H](O)[C@@H]1O (stereo partly drawn) [AdoMet, S-adenosyl-L-methionine]
Clr4 WT [1]; Clr4 WT 0.9 µM, H3K9me1 peptide 4.58 µM, AdoMet 0–50 µM, pH 8.8, 3 h, mean ± SEM
  N (Hill coefficient), Clr4 WT: 1.87 ± 0.19
Clr4 K455R/K472R; mutant data were fitted to the Michaelis–Menten model corresponding to an n-value of 1 (not a free parameter)
  n, Clr4 K455R/K472R: 1
Clr4 K455R/K472R; relative to WT activity, Clr4 K455R/K472R 0.9 µM, H3K9me1 peptide 4.58 µM, AdoMet 0–50 µM, pH 8.8, 3 h, 30 °C, Michaelis–Menten model, mean ± SEM
  rel. vmax (AdoMet), Clr4 K455R/K472R: 0.71 ± 0.08

## C[C@H](N)C(=O)N[C@@H](CCCNC(=N)N)C(=O)N[C@H](C(=O)N[C@@H](CCCCN)C(=O)N[C@@H](CCC(N)=O)C(=O)N[C@H](C(=O)N[C@@H](C)C(=O)N[C@@H](CCCNC(=N)N)C(=O)N[C@@H](CCCCN)C(=O)N[C@@H](CO)C(=O)N[C@H](C(=O)NCC(=O)NCC(=O)N[C@@H](CCCCN)C(=O)N[C@@H](C)C(=O)N1CCC[C@H]1C(=O)N[C@@H](CCCNC(=N)N)C(=O)N[C@@H](CCCCN)C(=O)N[C@@H](CCC(N)=O)C(N)=O)[C@@H](C)O)[C@@H](C)O)[C@@H](C)O [H3K9me0]
Clr4 WT [2]
  H3K9me1 product fraction after overnight incubation: 12%
  H3K9me2 product fraction after overnight incubation: 42%
  total methylation after overnight incubation: 54%

## A454R: Clr4 variant, A454 in the ARL was mutated to R
Clr4; p-value = 0.012
  stronger automethylation compared to Clr4 WT (fold): about 3.4 fold
Clr4
  Automethylation level (relative value): 3.4 ± 1.05
[3]
  change in methyltransferase activity on the H3K9 peptide, in words: approximately two-fold higher methyltransferase activity
  Methyltransferase activity (relative value): 1.9 ± 0.33
Clr4 A454R; A454R compared to WT, H3K9me0 and H3K9me1, Figure S4
  activity at low concentrations of both histone peptides: higher activity compared to the WT
Clr4 A454R; histone peptides, AdoMet 0.76 µM
  Vmax difference A454R vs WT: minor

## Clr4 K455R/K472R (Schizosaccharomyces pombe 972h-; K455R/K472R)
[4]
  Km: 13.6 ± 1.0 µM

## Clr4 WT: S. pombe H3K9 protein lysine methyltransferase Clr4, wild type
Clr4 WT [1]; AdoMet 2–50 µM, H3K9me1 peptide, 3 h
  reaction rate response towards increasing AdoMet concentration, Clr4 WT: sigmoidal response

## D456S/F457T: Clr4 variant, D456 and F457 were mutated to S and T
Clr4
  change in automethylation, in words: no significant change in automethylation
  Automethylation level (relative value): 1.2 ± 0.33
[3]
  change in methyltransferase activity on the H3K9 peptide, in words: no significant change in automethylation and methyltransferase activity
  Methyltransferase activity (relative value): 1.2 ± 0.14

## K455M: Clr4 variant in which the target lysine in the ARL, K455, was mutated to M
Clr4
  change in automethylation, in words: strong reduction in automethylation (about four-fold
  Automethylation level (relative value): 0.23 ± 0.05
[3]; less active than WT, p-value = 0.0004
  reduction in H3K9 peptide methyltransferase activity: 30%
[3]
  Methyltransferase activity (relative value): 0.7 ± 0.09

## K455R/K472R: ARL automethylation-deficient Clr4 mutant
Clr4
  decrease in automethylation compared to the WT enzyme (fold): ~2.2 fold
  Automethylation level (relative value): 0.46 ± 0.15
[3]
  change in methyltransferase activity on the H3K9 peptide, in words: not accompanied by a corresponding reduction in activity
  Methyltransferase activity (relative value): 0.91 ± 0.08
Clr4 K455R/K472R; AdoMet 2–50 µM, H3K9me1 peptide, 3 h, 30 °C, Michaelis–Menten model
  reaction rate response towards increasing AdoMet concentration, K455R/K472R: regular hyperbolic shape

## K455R: automethylation-deficient Clr4 mutant
Clr4
  decrease in automethylation compared to the WT enzyme (fold): about 1.4 fold
  Automethylation level (relative value): 0.7 ± 0.08
[3]
  change in methyltransferase activity on the H3K9 peptide, in words: not accompanied by a corresponding reduction in activity
  Methyltransferase activity (relative value): 1.1 ± 0.008

B1: H3K9me1-biotin (1–18) peptide (peptide, UniProt P68431 2-19, looked up)
peptide: ARTKQTARKSTGGKAPRK
modifications: monomethyl-lysine at 9; biotin (end not stated)
[5]
  Km of peptide methylation (steady-state kinetics, Michaelis–Menten fit, 0.76 µM AdoMet): 16.4 µM
[6]
  Km of peptide methylation (steady-state kinetics, Michaelis–Menten fit, 0.76 µM AdoMet): 5.5 µM

B2: A454R/D456S/F457T: Clr4 triple mutant, all of the exchanges combined in one mutant (protein, UniProt O60016 1-490, looked up, variant A454R D456S F457T)
Histone-lysine …: MSPKQEEYEVERIVDEKLDRNGAVKLYRIRWLNYSSRSDTWEPPENLSGCSAVLAEWKRRKRRLKGSNSDSDSPHHASNPHPNSRQKHQHQTSKSVPRSQRFSRELNVKKENKKVFSSQTTKRQSRKQSTALTTNDTSIILDDSLHTNSKKLGKTRNEVKEESQKRELVSNSIKEATSPKTSSILTKPRNPSKLDSYTHLSFYEKRELFRKKLREIEGPEVTLVNEVDDEPCPSLDFQFISQYRLTQGVIPPDPNFQSGCNCSSLGGCDLNNPSRCECLDDLDEPTHFAYDAQGRVRADTGAVIYECNSFCSCSMECPNRVVQRGRTLPLEIFKTKEKGWGVRSLRFAPAGTFITCYLGEVITSAEAAKRDKNYDDDGITYLFDLDMFDDASEYTVDAQNYGDVSRFFNHSCSPNIAIYSAVRNHGFRTIYDLAFFAIKDIQPLEELTFDYAGRKSTSPVQSQKSQQNRISKLRRQCKCGSANCRGWLFG
Clr4
  change in automethylation, in words: no significant difference from the A454R single mutant
  Automethylation level (relative value): 2.7 ± 0.66
[3]
  change in methyltransferase activity on the H3K9 peptide, in words: no significant difference from the A454R single mutant
  Methyltransferase activity (relative value): 1.7 ± 0.02
